From paper PMC3538687, “Detection of Cyclic Diguanylate G-Octaplex Assembly and Interaction with Proteins”

B1: S4 (structured_DNA)
DNA: CGCCTGACCCTTCAGGCGTTGGGTGGGTGGGTGGG
B2: TBA25 (structured_DNA)
DNA: GGTTGGTGTGGTTGG
B3: 38 NT SELEX (structured_DNA)
DNA: TAATACCCCCCCTTCGGTGCAAAGCACCGAAGGGGGGG
B4: PF1 (structured_DNA)
DNA: AGGAAGGCTTTAGGTCTGAGATCTCGGAAT

Key:
[1] = molecular target: T1, HIV-1 reverse transcriptase (HIV RT) (HIV-1 (HXB2 strain), UniProt P04585;P04585 588-1147;588-1027); test: competition (DRaCALA); details: protein: commercial; copies: 1;1
[2] = molecular target: Thrombin protease (UniProt P00734;P00734 328-363;364-622); test: DRaCALA; 8 µM thrombin; DRaCALA on dry nitrocellulose, 10 min at room temperature; binding buffer and pH not given in the material. cdiGMP G8/M/D binding (a cyclic dinucleotide ligand)
[3] = molecular target: T1, HIV-1 reverse transcriptase (HIV RT); test: competition (DRaCALA); unlabeled PF1 vs 5 nM 32P-PF1; 960 nM RT; details: protein: commercial; copies: 1;1

Row | Binder | binding result [1] | other results
1 | B1 | binds | 
2 | B2 |  | binding result [2]: binds
3 | B3 | binds | 
4 | B4 |  | IC50 [3]: 4 µM
